± gives the half width of the 95% confidence interval.
Key:
[1] = folding stability dG unfold from chymotrypsin proteolysis; higher = more stable
In short: (§1)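 Designed mini-proteins (under 80 residues, no cysteine) in a PA-tagged cDNA display construct were digested with trypsin and chymotrypsin. Each protease was used at 11 concentrations (threefold dilutions) plus a no-protease condition, followed by sequencing. K50 was inferred by Bayesian fitting of sequencing counts, and unfolding free energy was derived against a sequence-predicted unfolded-state K50 and a shared folded-state K50, per protease or combined. Only designs with AlphaFold2 dimer inter-PAE above 15 were kept.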

[2] = folding stability dG unfold (combined trypsin and chymotrypsin); higher = more stable
In short: as §1

[3] = folding stability dG unfold from trypsin proteolysis; higher = more stable
In short: as §1

Sequence | folding stability dG unfold [1] | folding stability dG unfold [2] | folding stability dG unfold [3]
SAGGSAGGSAGGMITTGITVSATDPNSSTSYTVTVPSSVPSSTFPANTAVGSAALAKLLASAGGSAGGSAGG [r17_412_JUSTAS] | -0.225 ± 0.25 kcal/mol | -0.449 ± 0.21 kcal/mol | -0.554 ± 0.19 kcal/mol
SAGGSAGGSAGGKKYKVVSIEKTKDYVRITIYNEETGELKTFTFPPGSTVTIKPGDTLTSAGGSAGGSAGGS [r10_834_TrROS_Hall] | 4.53 ± 0.15 kcal/mol | 4.42 ± 0.12 kcal/mol | 3.88 ± 0.2 kcal/mol
SAGGSPGSSLIGKKKLTIKVDNKDVEVEVTTSLSFLPSNQVTTSTEVKITLPNGKKIPKSLVEKLLSAGGSA [r2_363_JUSTAS] | 0.66 ± 0.17 kcal/mol | 0.742 ± 0.12 kcal/mol | 0.711 ± 0.044 kcal/mol
SAGGSFEPKREIEITLPNGREIEVWRYPGEGQMWVKLRFPNNGQKVEIPVKSPEDAEDSLKKFLKNSAGGSA [r2_70_TrROS] | -0.334 ± 0.35 kcal/mol | -0.169 ± 0.25 kcal/mol | -0.28 ± 0.29 kcal/mol
SAGGSAMFVVVEVESPEELRELVEEEDPSVFLLPTEDGEERLVVVDPENPENIRVIPLERPELLAPSAGGSA [r15_11_TrMRF] | -0.285 ± 0.27 kcal/mol | 0.27 ± 0.068 kcal/mol | 0.535 ± 0.042 kcal/mol
SLSPALEGPEALAALAAADPVPPLPVLTVKNSTGDPEKALEEVLKEHPELKPELIVEVEVGEGTLTITVLSA [r9_723_JUSTAS] | 0.573 ± 0.095 kcal/mol | 0.48 ± 0.19 kcal/mol | 0.442 ± 0.13 kcal/mol
SMKVEIPPELVEAIEKALAEKKPGEEVEIEFEHPDGPLIRVRIEKDGRVRIEVFEHPDKLIAEFEFEPKPSA [r9_132_TrMRF] | 2.98 ± 0.087 kcal/mol | 3.14 ± 0.077 kcal/mol | 3.31 ± 0.095 kcal/mol
SAGGMVTVSTPLGLGYSEEIKARMEEYVKAGDPEAAKELAQEYIDAKYPPKWPVEISFHENPAISKKSAGGS [r8_48_JUSTAS] | -0.209 ± 0.18 kcal/mol | -0.396 ± 0.36 kcal/mol | -0.769 ± 0.38 kcal/mol
SAGGSAGGLEIAKELGFEKIEIEEVKENRVVLKLKDKNGKEYKIEFEFDPETGEIKILKIEPLPSAGGSAGG [r6_526_TrMRF] | 4.19 ± 0.1 kcal/mol | 4.12 ± 0.13 kcal/mol | 3.1 ± 0.21 kcal/mol
SNEPPVIEIKFRIDEVQPMNGQPMIMFEITEIEDAPPEIQDLLKNGYYIMIHMPPGEPLKEGEEFEIHIFSA [r9_557_TrROS] | 2.75 ± 0.12 kcal/mol | 2.01 ± 0.3 kcal/mol | 1.34 ± 0.09 kcal/mol
SMPLTPAEVAEARARAAREAAEAAAGVPVTVRVTLSTPDRELTVTLPATESLAAVMKAHPDVTVEVEVEASA [r9_513_JUSTAS] | 0.0452 ± 0.11 kcal/mol | 0.284 ± 0.059 kcal/mol | 0.459 ± 0.043 kcal/mol
SAGGMVEIELEVDGKKIKITYDKETGKITIEIDGKKIEVELPEEDKGKSKEELLKKALEKAKEELKKSAGGS [r16_215_TrROS_Hall] | 2.46 ± 0.11 kcal/mol | 2.49 ± 0.11 kcal/mol | 2.46 ± 0.23 kcal/mol
SAGGSAGGSAGSMLTTTLPNGTPVTREFDIQDVEPKGDVIKVVITNPTGGEVPASTVIGPVNSAGGSAGGSA [r18_163_JUSTAS] | 0.757 ± 0.03 kcal/mol | 0.657 ± 0.081 kcal/mol | 0.412 ± 0.051 kcal/mol
SAGGSAGGSMSPEEARALAEALAEALGEPDVEVLEVVQTENPAADSTTVTVTIRLPDGSVRVLSAGGSAGGS [r12_508_JUSTAS] | 1.481 ± 0.014 kcal/mol | 1.63 ± 0.06 kcal/mol | 1.63 ± 0.079 kcal/mol
SAGGSAGGSAGGKTITLPPGMSEEELLEALKKAKPGDTITIEVDGKTYTLKVENGKITLTSAGGSAGGSAGG [r7_560_TrROS_Hall] | 3.92 ± 0.12 kcal/mol | 3.56 ± 0.12 kcal/mol | 2.31 ± 0.14 kcal/mol
SAGGSAGGGKSFSIPVDDAVILDYDPVTKRLTILLPGPGVELVLPLDKVKRIEIDPETGTIHVESAGGSAGG [r6_313_TrMRF] | 1.61 ± 0.02 kcal/mol | 1.64 ± 0.073 kcal/mol | 1.54 ± 0.022 kcal/mol
SAGGMTLTVDEIKELLKKGYSLEEIKEALKKAGFEIVEIKKIEKKDGKIYIEIEFKKNKKIIKIEIPSAGGS [r8_179_TrROS_Hall] | 4.35 ± 0.18 kcal/mol | 4.2 ± 0.35 kcal/mol | 3.38 ± 0.24 kcal/mol
SAGGSARALLEELEVLSEEDRGDFTVVTVKGPAAEYPAEEVRAALEALGIAVEYDPATGEVTVYVASAGGSA [r15_599_JUSTAS] | 0.964 ± 0.084 kcal/mol | 0.69 ± 0.071 kcal/mol | -0.0454 ± 0.023 kcal/mol
SAGGSAGGSALPLPPDQRLYVFRDPEGDLYLVRFEDGSEVRTSLKAEDLEKLGVPVVDIGDLSAGGSAGGSA [r18_125_TrMRF] | 1.49 ± 0.037 kcal/mol | 1.66 ± 0.032 kcal/mol | 1.73 ± 0.035 kcal/mol
SWMFMIEVHDPKNGKERTVPINMPKEQVLDQIREAQEKGPRIEIWGIPPNAIKEIAEEAKLPVEIHPMPPSA [r9_1207_TrROS] | 0.409 ± 0.15 kcal/mol | 0.148 ± 0.14 kcal/mol | 0.012 ± 0.24 kcal/mol
SAGEEIERLLKEIEEAVRKAYPDKVVKVDLVKVELRPVLVVDPGTPRIEERTEIFLEVKVTVTHPDELSAGG [r19_293_TrMRF] | 2.77 ± 0.08 kcal/mol | 2.63 ± 0.087 kcal/mol | 2.22 ± 0.098 kcal/mol

Sequence | folding stability dG unfold [1] | folding stability dG unfold [2] | folding stability dG unfold [3]
MKIEIEIEREEDRVIVRIKIERKDGKEIELELEVPSLEEALEAIEKILASLPPEEVKIVEIEIYNADGEKIS [r1_169_TrROS_Hall] | 1.85 ± 0.086 kcal/mol | 2.21 ± 0.2 kcal/mol | 2.53 ± 0.14 kcal/mol
SAGGSAGGSASSVVTPISHPDGRTGTKVTLPNGTVIEFIFYPDGTIIEINHSNNTTTVTPLVSAGGSAGGSA [r18_285_JUSTAS] | 1.55 ± 0.017 kcal/mol | 1.53 ± 0.031 kcal/mol | 1.44 ± 0.04 kcal/mol
SAGGSAKNEYITVNITIIVYNPEDGKIEKIINLPIKVPKNLTKEQVINLAKKLLEEKGYEIAEIKGSAGGSA [r15_195_TrMRF] | 3.24 ± 0.13 kcal/mol | 2.85 ± 0.2 kcal/mol | 2.22 ± 0.12 kcal/mol
SVPYGVTDVTFEPEKNTATVTAPRPDPSAPVAVGDKKGESVSVTSEVDTAAGTLTVTVPTTAPGNVTVDVPS [r1_138_JUSTAS] | -0.934 ± 0.54 kcal/mol | 0.133 ± 0.12 kcal/mol | 0.57 ± 0.041 kcal/mol
SAGGSAGGSAGGGMSLSYTVTTSTTVVPAPDGVTVLHPTTTTFPGGPTTTTTTVTVEPAGSAGGSAGGSAGG [r7_701_JUSTAS] | -0.855 ± 0.12 kcal/mol | 0.409 ± 0.051 kcal/mol | 0.872 ± 0.021 kcal/mol
SAGGSAGGSKKIKIKVKVKNPKTKKYYEIEIEISEEELKEGKLTKEQIKKELEKLGYEVEIVPSAGGSAGGS [r20_221_TrROS_Hall] | 2.6 ± 0.07 kcal/mol | 2.9 ± 0.095 kcal/mol | 3.26 ± 0.15 kcal/mol
SAGGMKIRIPEGQEVKLKKVRFWHNGKPWKIPNMEIKVDRIDPNDNRVQIEIKHPNGRPHTFAFDIKSAGGS [r8_215_TrROS] | 0.456 ± 0.13 kcal/mol | 0.512 ± 0.086 kcal/mol | 0.459 ± 0.11 kcal/mol
SAGGSAGGSAMIVTEEGNTITITTLTNLTFPTTGATSTATTTTTITLPPTPLFPVPRTDNSLSAGGSAGGSA [r18_501_JUSTAS] | 0.819 ± 0.12 kcal/mol | 0.44 ± 0.24 kcal/mol | -0.21 ± 0.11 kcal/mol
SAGGSAGGDKNAKPQPIMIAIEIYNPNGRKQEHTFPFESLDDAKEFIEDWLPPGYQVKVDIYPVSAGGSAGG [r6_290_TrROS] | 0.709 ± 0.07 kcal/mol | 0.693 ± 0.16 kcal/mol | 0.322 ± 0.1 kcal/mol
SAGGSAGGSAVRTIFIPGGNIKDIIELIKSDPGQPVQIHAPDGWVIKITGDKDIDIHPFPDSAGGSAGGSAG [r3_269_TrROS] | 0.337 ± 0.084 kcal/mol | 0.216 ± 0.15 kcal/mol | -0.44 ± 0.2 kcal/mol
SAGGSAGGSKKKITRIVITDFDPETGKVTVRIRNENGEEETIEVETLEELKELFPDVEVEVIPSAGGSAGGS [r12_403_TrROS_Hall] | 2.09 ± 0.044 kcal/mol | 2.24 ± 0.059 kcal/mol | 2.45 ± 0.049 kcal/mol
SAGGSAGGSAGGDRLKIIIPFPPGMDIDQIAEELKPHFKKVEIEHDKEDGWVTIEVELDSAGGSAGGSAGGS [r10_1007_TrROS] | 1.08 ± 0.1 kcal/mol | 0.939 ± 0.15 kcal/mol | 0.271 ± 0.097 kcal/mol
SAGGSATLKEIAKEIEKTVKPKYAKKLAKTIEEAVKKGYEIKKIIIEKPKDDSFKATIYLKKPNDPSAGGSA [r15_613_TrMRF] | 0.294 ± 0.45 kcal/mol | 0.66 ± 0.27 kcal/mol | 0.676 ± 0.14 kcal/mol
MDVKIEPYRDPETGELYYKAVVKFKDGKEKLIEVKVPPNGKPIAKIYDPNGKLLAEKEFDSIEEALKEALAS [r1_478_TrMRF] | 4.24 ± 0.16 kcal/mol | 3.91 ± 0.37 kcal/mol | 3.3 ± 0.35 kcal/mol
SAGGSAGGSAGEEFIKKIPPGAEVKPITPLESEGKVYVKITVKKKDENGKWTEEEFIFKVSAGGSAGGSAGG [r17_140_JUSTAS] | 1.38 ± 0.087 kcal/mol | 1.28 ± 0.22 kcal/mol | 1.17 ± 0.072 kcal/mol
SAGPNKPYKIRVSIMHPGKWREHEIDIDPGEDIEEALDEIMDKLPPNWMIMIHYANGEMIMIPIPPEMISAG [r5_77_TrROS] | 2.18 ± 0.086 kcal/mol | 2.11 ± 0.16 kcal/mol | 1.72 ± 0.097 kcal/mol
SKKVVFVTYPKTSVKEIVEKLKENPNTEFVFLMPSSVGPEFYEKLKKALKEANIPKEQKVLFLPVEENSLSA [r9_670_TrMRF] | 3.106 ± 0.015 kcal/mol | 3.04 ± 0.077 kcal/mol | 2.92 ± 0.13 kcal/mol
SAMLKLEITLPDGTVVEVEIPLERPVPPAGEEEALAAAEAVREAVAAALGLEDAEVTMEVEEVSPEELLSAG [r14_378_JUSTAS] | 1.03 ± 0.051 kcal/mol | 1.41 ± 0.2 kcal/mol | 1.65 ± 0.12 kcal/mol
SATKEIEIEVNGRKLRIRIERKEDGSIKITIELPGMSAEEVKEALRKLLPPDAKITVDEITVTEYREEPSAG [r14_370_TrROS_Hall] | 2.43 ± 0.17 kcal/mol | 2.84 ± 0.3 kcal/mol | 3.14 ± 0.17 kcal/mol
SAGGLLEELGLEIEEVEVEVEEVEVGQTVRIRVKVKGEDGEEFEIELEIRLPPPPVEVEEEVEEEEESAGGS [r8_216_TrROS_Hall] | 1.83 ± 0.09 kcal/mol | 1.82 ± 0.14 kcal/mol | 1.91 ± 0.2 kcal/mol
SAGGSKPILKIKITIYRIDKNGKLIKKIELTLPPLTEEQLKKLLEALKKLPKDVKIVEVKIELVEPSAGGSA [r2_75_TrROS_Hall] | 4.54 ± 0.26 kcal/mol | 4.16 ± 0.31 kcal/mol | 3.49 ± 0.32 kcal/mol
